We go through one substance from US20230053360.

Series [1] has as its system MMPpep, (prA)GGPQGIWGQG(azK), as the DNA1-MMPpep-DNA2 triblock conjugate linking two DX tiles.
The test system of series [2] is MMPpep-scram, (prA)GQGIPQGWGG(azK), as a DNA-peptide-DNA conjugate linking two DX tiles.

human matrix metalloproteinase 8, sequence (chain, as listed by the source): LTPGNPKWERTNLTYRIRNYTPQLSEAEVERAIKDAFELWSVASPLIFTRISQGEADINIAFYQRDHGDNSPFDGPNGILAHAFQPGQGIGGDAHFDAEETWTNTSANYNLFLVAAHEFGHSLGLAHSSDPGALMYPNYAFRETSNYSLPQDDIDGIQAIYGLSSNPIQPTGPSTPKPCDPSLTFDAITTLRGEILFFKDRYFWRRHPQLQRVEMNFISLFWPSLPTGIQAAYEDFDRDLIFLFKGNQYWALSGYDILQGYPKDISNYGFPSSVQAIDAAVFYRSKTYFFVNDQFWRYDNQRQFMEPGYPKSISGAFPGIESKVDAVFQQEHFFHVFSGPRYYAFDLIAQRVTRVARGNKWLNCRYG

Consider human matrix metalloproteinase 8, for which the “cleavage of DX tile dimer to individual tiles, native PAGE” value was “Following addition of MMP8 (4 ng protein, incubation for 48 h at 37 °C in PBS) a single band is once again seen, corresponding to the individual tiles” in series [1] and “did not show any cleavage to individual tiles” in series [2].
